Results reported in article PMC5986797 (2018).

Experiments:
Assay in all cases: SPR
[1] = target: recombinant human laminin-521 (human, UniProt O15230 36-3695; P55268 33-1798; P11047 34-1609)
[2] = target: T1, recombinant laminin LAMA3_(2928–3150) protein (human, UniProt Q16787 2928-3150)
T1 chain: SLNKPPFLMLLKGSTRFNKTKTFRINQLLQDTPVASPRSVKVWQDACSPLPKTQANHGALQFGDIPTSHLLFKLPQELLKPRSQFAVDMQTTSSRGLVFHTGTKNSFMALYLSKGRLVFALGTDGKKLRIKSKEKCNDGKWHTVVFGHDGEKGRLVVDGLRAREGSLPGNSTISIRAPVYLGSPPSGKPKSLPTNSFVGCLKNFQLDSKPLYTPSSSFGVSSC

[3] = target: T1, recombinant laminin LAMA3_(2928–3150) …

B1: platelet-derived growth factor PDGF-BB (ligand)
chain: SLGSLTIAEPAMIAECKTRTEVFEISRRLIDRTNANFLVWPPCVEVQRCSGCCNNRNVQCRPTQVQLRPVQVRKIEIVRKKPIFKKATVTLEDHLACKCETVAAARPVT
koff [1]: 0.00497 s⁻¹ | Kd [2]: 12.1 nM | koff [3]: 0.0136 s⁻¹

B2: placental growth factor (PlGF)-2 (ligand)
chain: LPAVPPQQWALSAGNGSSEVEVVPFQEVWGRSYCRALERLVDVVSEYPSEVEHMFSPSCVSLLRCTGCCGDENLHCVPVETANVTMQLLKIRSGDRPSYVELTFSQHVRCECRPLREKMKPERRRPKGRGKRRREKQRPTDCHLCGDAVPRR
koff [1]: 0.0246 s⁻¹

B3: vascular endothelial cell growth factor VEGF-A165 (ligand)
chain: APMAEGGGQNHHEVVKFMDVYQRSYCHPIETLVDIFQEYPDEIEYIFKPSCVPLMRCGGCCNDEGLECVPTEESNITMQIMRIKPHQGQHIGEMSFLQHNKCECRPKKDRARQENPCGPCSERRKHLFVQDPQTCKCSCKNTDSRCKARQLELNERTCRCDKPRR
koff [1]: 0.00324 s⁻¹ | Kd [2]: 1.47 nM | koff [3]: 0.00663 s⁻¹
